Results from patent US20060141569A1, “Compositions and methods for the assay of G-protein coupled receptors and their ligands” (priority 2004, published 2006).

Experiments:
CB1 receptor = biological target: T1, CB1 receptor (Homo sapiens, UniProt P21554); assay: CB1 receptor FLIPR dose response in CB1-transfected CHEM-1 cells; type: cell-based; conditions: pHS vector (FIG. 10D)
T1 construct: ER export signal […]; expressed in transfected cells; host or cells: CHEM-1 (RBL-2H3) cells, pHS vector
Experimental: FIG. 10D is a graph depicting the agonist-induced CB1 receptor FLIPR® dose response for CB1-transfected CHEM-1 cells using the pHS vector.
Cells (50,000/well) were seeded in a 96 well FLIPR® plate (clear bottom, black wall TC plate) the day before the experiment, and then loaded with fluorescent calcium dye Fluo-4 or Indo-1 (Molecular Probes) and incubated for 30 minutes at 37° C. in the dark with Pluronic F-127 and Probenecid in HBSS buffer (with Ca^2+ and Mg^2+). The cells were then washed twice with HBSS and read for calcium mobilization after the ligand addition on FLEX Station or FLIPR®. The loading efficiency and integrity of the Ca^2+ flux assay were assessed by comparing the signaling response to ionomycin treatment before and after each run.

CXCR2 [1] = biological target: T2, CXCR2 (Homo sapiens, UniProt P25025); assay: CXCR2 membrane radioligand (125I-Groα) saturation binding; conditions: membranes of CHO cells transfected with CXCR2, pcDNA3 vector; 125I-Groα 0-2 nM (FIG. 7A)
T2 construct: expressed in transfected cells; host or cells: CHO cells, pcDNA3 vector, crude membranes of stably transfected cells
T2 sequence (P25025 1-360): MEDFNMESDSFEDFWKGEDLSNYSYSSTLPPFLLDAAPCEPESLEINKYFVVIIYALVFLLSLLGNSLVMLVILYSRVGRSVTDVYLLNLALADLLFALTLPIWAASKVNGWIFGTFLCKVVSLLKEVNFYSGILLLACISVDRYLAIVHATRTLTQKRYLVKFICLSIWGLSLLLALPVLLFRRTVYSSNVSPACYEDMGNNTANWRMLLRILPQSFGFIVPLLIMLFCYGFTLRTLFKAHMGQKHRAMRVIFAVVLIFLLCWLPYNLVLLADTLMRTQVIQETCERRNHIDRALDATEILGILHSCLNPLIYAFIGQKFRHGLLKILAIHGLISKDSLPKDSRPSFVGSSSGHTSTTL
Experimental: (§1) FIG. 7A is a graph depicting CXCR2 membrane radioligand saturation binding for membranes of CHO cells transfected with CXCR2 encoded by the mammalian expression vector pcDNA3. Specifically, 5 μg of GPCR membrane preps were incubated with increasing concentrations (0-2 nM) of ^125I-labeled ligand Groα (PerkinElmer, Wellesley, Mass.) in the absence or presence of an excess amount of cold ligand Groα.
as §1, with “7B” for “7A”, “CHEM-1” for “CHO”, “the” for “the mammalian”, “pHS.” for “pcDNA3.”, “preparation was” for “preps were”
1-5 μg/well of crude membrane protein was thawed and combined with 50,000 to 100,000 cpm of radioligand (2200 Ci/mmol) and cold competitors in assay buffer (50 mM Hepes, 5 mM MgCl2, 1 mM CaCl2, 0.2% BSA) for 2 hours at 25° C. Reactions were performed in 96-well GF/C glass fiber filter plates (PerkinElmer, Cat. No. 6005174, Wellesley, Mass.). […] The filter plate was then dried and counted on a Microbeta liquid scintillation counter (PerkinElmer, Wellesley, Mass.). […]

CXCR2 [2] = biological target: T2, CXCR2; assay: CXCR2 membrane radioligand (125I-Groα) competition binding; conditions: two site binding curve, FIG. 8A (pcDNA3/CHO membranes); 0.5 nM 125I-Groα; matches high affinity sites of FIG. 8B
Experimental: After 2 hours of incubation at room temperature, membranes were harvested to a 96-well GF/C filter plate, dried and counted using a Microbeta counter.
1-5 μg/well of crude membrane protein was thawed and combined with 50,000 to 100,000 cpm of radioligand (2200 Ci/mmol) and cold competitors in assay buffer (50 mM Hepes, 5 mM MgCl2, 1 mM CaCl2, 0.2% BSA) for 2 hours at 25° C. Reactions were performed in 96-well GF/C glass fiber filter plates (PerkinElmer, Cat. No. 6005174, Wellesley, Mass.). Binding was terminated by adding 100 μl/well of wash buffer (50 mM Hepes, pH 7.4, 500 mM NaCl, 0.1% BSA) and aspiration through the plate on a cell harvester, followed by three 0.2 ml washes with wash buffer. The filter plate was then dried and counted on a Microbeta liquid scintillation counter (PerkinElmer, Wellesley, Mass.).

T1 sequence (P21554 whole entry): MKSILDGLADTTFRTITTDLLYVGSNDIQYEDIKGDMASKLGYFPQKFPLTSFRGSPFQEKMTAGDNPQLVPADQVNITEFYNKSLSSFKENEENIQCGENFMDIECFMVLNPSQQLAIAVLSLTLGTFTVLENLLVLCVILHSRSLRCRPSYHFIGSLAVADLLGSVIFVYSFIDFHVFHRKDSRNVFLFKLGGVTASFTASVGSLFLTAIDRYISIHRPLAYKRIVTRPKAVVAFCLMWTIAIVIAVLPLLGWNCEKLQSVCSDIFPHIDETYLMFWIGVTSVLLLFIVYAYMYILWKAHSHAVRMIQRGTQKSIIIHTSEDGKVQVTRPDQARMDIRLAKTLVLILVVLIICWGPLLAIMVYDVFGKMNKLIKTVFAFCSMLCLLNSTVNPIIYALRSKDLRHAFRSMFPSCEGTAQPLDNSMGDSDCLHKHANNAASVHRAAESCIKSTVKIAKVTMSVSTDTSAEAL

| Compound | agonist type (efficacy) in FLIPR dose response (CB1 receptor) | Kd (CXCR2 [1]) | Ki (CXCR2 [2]) |
| --- | --- | --- | --- |
| CCCCCCC(C)(C)c1ccc([C@@H]2C[C@H](O)CC[C@H]2CCCO)c(O)c1 [CP55940] | partial agonists | – | – |
| Groα | – | 0.148 nM | 0.22 nM |
